Experimental data: patent US20250011363A1, “OPTIMIZED SHORTENED PEPTIDE THAT BINDS TO ACETYLCHOLINE RECEPTOR, AND USE THEREOF” (SKINMED CO., LTD., priority 2021, published 2025)

Biological target: acetylcholine receptor
Assay: SPR, peptide at 10 uM, acetylcholine receptor immobilized on chip

| Binder | Binding affinity (RU) |
| --- | --- |
| RKPKR [5mer-622] | 22 RU |
| RMMMR [5mer-634] | 26 RU |
| RFSHR [5mer-632] | 33 RU |
| KMCDR [5mer-625] | 33 RU |
| KCCNR [5mer-615] | 20 RU |
| KDHIR [5mer-611] | 33 RU |
| RITWK [5mer-641] | 22 RU |
| RYMDR [5mer-628] | 19 RU |
| RPCFR [5mer-910] | 17 RU |
| RPSPR [5mer-905] | 30 RU |
| REHGK [5mer-911] | 14 RU |
| KKMGR [5mer-912] | 16 RU |
| KEHER [5mer-624] | 22 RU |
| RPTMR [5mer-914] | 26 RU |
| KCDHK [5mer-637] | 28 RU |
| KMSPK [5mer-627] | 30 RU |
| RKTMK [5mer-609] | 32 RU |
| RNTWK [5mer-614] | 29 RU |
| RKEGK [5mer-604] | 13 RU |
| KCTDK [5mer-612] | 23 RU |
| KPDPK [5mer-904] | 23 RU |
| RYCAK [5mer-617] | 28 RU |
| RECFK [5mer-605] | 22 RU |
| KDKGR [5mer-636] | 11 RU |
| RAWDR [5mer-642] | 22 RU |
| RPTNK [5mer-629] | 32 RU |

| Binder | Binding affinity (RU) |
| --- | --- |
| RINVK [5mer-909] | 33 RU |
| KETWK [5mer-639] | 13 RU |
| KDSVR [5mer-907] | 18 RU |
| KNPHK [5mer-640] | 15 RU |
| RMSWK [5mer-618] | 19 RU |
| RIHWK [5mer-606] | 25 RU |
| KKSMK [5mer-621] | 13 RU |
| RCMHK [5mer-620] | 23 RU |
| KCSFK [5mer-619] | 19 RU |
| RAEFR [5mer-613] | 20 RU |
| RHHKR [5mer-903] | 21 RU |
| KMTHR [5mer-915] | 28 RU |
| RIEER [5mer-607] | 25 RU |
| KNTGR [5mer-623] | 19 RU |
| RMNGR [5mer-635] | 21 RU |
| RKHAK [5mer-906] | 31 RU |
| KFCPR [5mer-616] | 15 RU |
| RITFR [5mer-630] | 30 RU |
| KICMR [5mer-626] | 12 RU |
| KHCIR [5mer-638] | 33 RU |
| RAAKR [5mer-633] | 20 RU |
| RPANR [5mer-631] | 17 RU |
| KHTFK [5mer-913] | 13 RU |
| RCHFK [5mer-908] | 25 RU |
| RDSER [5mer-608] | 20 RU |
| KCDDK [5mer-610] | 16 RU |

The remaining lines, values ahead:

| Binding affinity (RU) | Binder |
| --- | --- |
| 27 RU | RNEKK [5mer-924] |
| 27 RU | RYMKK [5mer-933] |
| 19 RU | RDEDR [5mer-927] |
| 14 RU | RMWKR [5mer-922] |
| 18 RU | RIEFK [5mer-938] |
| 18 RU | KCMGK [5mer-940] |
| 27 RU | RTAWK [5mer-932] |
| 21 RU | KKKFK [5mer-921] |
| 11 RU | KCAPR [5mer-917] |
| 12 RU | RCHER [5mer-916] |
| 25 RU | KDCFK [5mer-925] |
| 17 RU | KMMMR [5mer-934] |
| 11 RU | RPSDR [5mer-942] |
| 24 RU | KMHAR [5mer-939] |
| 32 RU | KNNIK [5mer-919] |
| 21 RU | KASNR [5mer-937] |
| 32 RU | RETFK [5mer-935] |
| 12 RU | RNNVR [5mer-918] |
| 19 RU | KCWMK [5mer-923] |
| 28 RU | KYTFR [5mer-929] |
| 20 RU | RAWVR [5mer-930] |
| 29 RU | RNHKR [5mer-936] |
| 22 RU | RNCWK [5mer-926] |
| 11 RU | RITER [5mer-931] |
| 27 RU | KHMVR [5mer-928] |
| 15 RU | KPKIK [5mer-920] |
| 21 RU | KNHHR [5mer-941] |
